The values that follow come from paper PMC6211226, “Intracellular Signaling by the comRS System in Streptococcus mutans Genetic Competence” (mSphere, 2018).

For data set [1], the target named is ComR;XIP (Streptococcus mutans UA159;Streptococcus mutans) (UniProt Q8DWI6). The experiment in a line: fluorescence polarization. The note with it: Previously described reaction buffer (ref 53; composition not given) + 1 mM EDTA, 0.05 mg/ml salmon DNA, 1 nM probe, 37 C, 20 min; ComR dialyzed into PBS pH ….
Data set [2] concerns the target ComS (full-length, 17 residues), synthetic (Streptococcus mutans). The experiment in a line: fluorescence polarisation; ComR titrated into 1 nM Bodipy FL-X-labelled PcomX stem-loop DNA probe with 10 µM XIP or ComS, 0.05 mg/ml salmon DNA, 1 mM EDTA, 37°C 20 min; together with competition by unlabeled DNA at 1.5 µM ComR; read-out is on the DNA probe, k1 and n of the ComR/peptide complex come from the fit of a two-step cooperative model.

The target of data set [3] is XIP (sigX-inducing peptide), synthetic (Streptococcus mutans). The data set is described as above.
The subject of the next data set is ComR. In words: Fluorescence polarization competition assay with unlabeled DNA probes. Format: binding. The note with it: 1.5 µM ComR, 10 µM ComS or XIP, 1 nM labeled PcomX DNA; PcomS vs PcomX. How it is done: FIG 5 ComS and XIP interact with ComR to bind the comX promoter. A fluorescence polarization assay testing interaction of ComS and XIP peptides with ComR and the PcomX transcriptional activation site was performed. The DNA probe was labeled with a Bodipy FL-X fluorophore. (A) Titration of ComR into a solution containing 10 µM XIP (blue) or full-length ComS (green), labeled DNA probe (1 nM), and 0.05 mg ml^−^1 salmon DNA. The negative control (black) contained no ComS or XIP peptide. (B) Competition assay in which unlabeled promoter sequence DNA was titrated into a solution containing ComR (1.5 µM), fluorescent DNA probe (1 nM), and peptide (either ComS or XIP, 10 µM). Unlabeled PcomX DNA was used with XIP (blue) and ComS (green). An unlabeled PcomS probe was also tested for its ability to compete with the fluorescent PcomX probe in the presence of XIP (red) and ComS (gold). […]
Competing unlabeled probe assays were performed with 1.5 µM ComR in the same buffer containing 1 nM PcomX fluorescent DNA and 10 µM SHP (either ComS or XIP). […] Reaction mixtures were again incubated at 37°C for 20 min before polarization readings were taken. In all FP experiments, reading was performed three times on the same plate to estimate instrument error. […]

Data set [4] concerns the target T1, ComR;ComS (Streptococcus mutans …, UniProt Q8DWI6; 1-304;, |). The experiment in a line: competition (fluorescence polarization); 1.5 uM ComR, 10 uM ComS, 1 nM labeled PcomX; affinity appears identical to PcomX; Previously described reaction buffer (ref 53; composition not given) + 1 mM EDTA, 0.05 mg/ml salmon DNA, 1 nM probe, 37 C, 20 min; ComR dialyzed into PBS pH 7.4. The note with it: tags: His6 tag (pET-45b(+), N-terminal) cleaved with EKMax;; chain copies: 2;2; hairpin, 20 bp stem, CCCCC loop.

Data set [5] has as its target T1, ComR;ComS. In words: fluorescence polarization; 10 uM ComS; k2 of two-step model (k1 = 3.2 uM, n = 2.5), global fit with competition; not precisely determined, Text S3 gives k2 range 30-200 nM; Previously described reaction buffer (ref 53; composition not given) + 1 mM EDTA, 0.05 mg/ml salmon DNA, 1 nM probe, 37 C, 20 min; ComR dialyzed into PBS pH 7.4. As to conditions: tags: His6 tag (pET-45b(+), N-terminal) cleaved with EKMax;; chain copies: 2;2; label: 5' Bodipy FL-X; hairpin, 20 bp stem, CCCCC loop.

{BodipyFLX} = Bodipy FL-X fluorophore label on the DNA probe

As to “ATGGGACATTTATGTCCTGTCCCCCACAGGACATAAATGTCCCAT [PcomX stem-loop probe]”, in data set [1], the Kd came out at 33 nM.

For “ComR (native, histidine tag cleaved) (receptor)”, the figures for the Kd in data set [2] and in data set [3] were 3200 nM and 7300 nM, respectively. Besides, the n (order of multimerization of the ComR/peptide complex, two-step model) in data set [2] was determined as 2.5; in data set [3], 2.4.

Turning to “PcomX: self-annealing stem-loop DNA, 5′-ATGGGACATTTATGTCCTGTCCCCCACAGGACATAAATGTCCCAT-3′ (5′-Bodipy FL-X in labeled probe) (DNA, 5' {BodipyFLX}, backbone and methylation of C not given here)”, the “affinity of unlabeled probe for ComR by competition” value in the data set on ComR was “appear to have identical levels of affinity for ComR”.

ACGGGACATAAATGTCCTGTCCCCCACAGGACATTTATGTCCCGT (structured_DNA) [PcomS stem-loop, unlabeled]: the binding result in the data set with ComR;ComS [4] is “binds”.

In the case of ATGGGACATTTATGTCCTGTCCCCCACAGGACATAAATGTCCCAT (structured_DNA) [PcomX stem-loop probe], in the data set with ComR;ComS [5], the Kd was 2.2 nM.
